Measurements as given in patent publication US20110039770A1, “INHIBITORS OF PROTEIN KINASE C ISOFORMS AND USES THEREOF” (PHARMAGAP INC., priority 2005, published 2011).
Where a SMILES comes first, the peptide text is derived from it. Where no end group is shown, it is not given here. The star is where a group is joined. PNA(A) = NCCN(CC(=O)*)C(=O)Cn1cnc2c(N)ncnc21

Assays:
[1] = tested on: peripheral blood lymphocytes; assay: Peripheral blood lymphocyte survival and blastogenic response to mitogens; type: cell-based; conditions: primary lymphocytes of pigs, mice and human
PKC alpha = PKC alpha (Homo sapiens, UniProt P17252); assay: Kinase-Glo Luminescent Kinase Assay; type: biochemical; conditions: for inhibition of PKC alpha activity (in words): Kinase-Glo
Description: (§1) Compounds TIM 10, 11, 13, 14, 15, and 18-22 (see Table 28) were tested for their ability to inhibit the activity of PKC-alpha, beta 1, delta and epsilon isoforms the Kinase-Glo™ Luminescent Kinase Assay (Promega, Cat # V6712/3/4) following the manufacturer's instructions.

PKC delta = PKC delta (Homo sapiens, UniProt Q05655); assay: Kinase-Glo Luminescent Kinase Assay; type: biochemical; conditions: for inhibition of PKC delta activity (in words): Kinase-Glo
Sequence of PKC delta (Q05655 whole entry): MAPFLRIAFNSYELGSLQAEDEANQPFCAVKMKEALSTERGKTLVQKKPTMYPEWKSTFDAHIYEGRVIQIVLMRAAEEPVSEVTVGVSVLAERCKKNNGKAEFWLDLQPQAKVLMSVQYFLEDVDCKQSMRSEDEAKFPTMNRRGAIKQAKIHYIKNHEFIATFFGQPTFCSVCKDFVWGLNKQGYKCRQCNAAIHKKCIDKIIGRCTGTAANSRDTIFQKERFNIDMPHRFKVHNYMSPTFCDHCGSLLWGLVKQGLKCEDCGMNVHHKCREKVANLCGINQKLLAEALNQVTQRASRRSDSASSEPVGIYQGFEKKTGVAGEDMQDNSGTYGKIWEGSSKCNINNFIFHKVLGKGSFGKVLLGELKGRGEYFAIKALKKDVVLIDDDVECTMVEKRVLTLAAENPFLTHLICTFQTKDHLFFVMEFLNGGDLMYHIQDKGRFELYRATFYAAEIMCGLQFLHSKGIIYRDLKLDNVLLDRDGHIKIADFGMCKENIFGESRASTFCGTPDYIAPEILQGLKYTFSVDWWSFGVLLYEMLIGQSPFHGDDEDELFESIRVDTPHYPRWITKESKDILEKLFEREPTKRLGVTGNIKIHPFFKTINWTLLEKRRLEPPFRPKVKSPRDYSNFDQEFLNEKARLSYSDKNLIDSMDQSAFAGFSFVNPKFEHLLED
Description: as §1

PKC epsilon = target: T1, PKC epsilon (Homo sapiens, UniProt Q02156); assay: Kinase-Glo Luminescent Kinase Assay; type: biochemical; parameters: purchased
T1 sequence (Q02156 1-737): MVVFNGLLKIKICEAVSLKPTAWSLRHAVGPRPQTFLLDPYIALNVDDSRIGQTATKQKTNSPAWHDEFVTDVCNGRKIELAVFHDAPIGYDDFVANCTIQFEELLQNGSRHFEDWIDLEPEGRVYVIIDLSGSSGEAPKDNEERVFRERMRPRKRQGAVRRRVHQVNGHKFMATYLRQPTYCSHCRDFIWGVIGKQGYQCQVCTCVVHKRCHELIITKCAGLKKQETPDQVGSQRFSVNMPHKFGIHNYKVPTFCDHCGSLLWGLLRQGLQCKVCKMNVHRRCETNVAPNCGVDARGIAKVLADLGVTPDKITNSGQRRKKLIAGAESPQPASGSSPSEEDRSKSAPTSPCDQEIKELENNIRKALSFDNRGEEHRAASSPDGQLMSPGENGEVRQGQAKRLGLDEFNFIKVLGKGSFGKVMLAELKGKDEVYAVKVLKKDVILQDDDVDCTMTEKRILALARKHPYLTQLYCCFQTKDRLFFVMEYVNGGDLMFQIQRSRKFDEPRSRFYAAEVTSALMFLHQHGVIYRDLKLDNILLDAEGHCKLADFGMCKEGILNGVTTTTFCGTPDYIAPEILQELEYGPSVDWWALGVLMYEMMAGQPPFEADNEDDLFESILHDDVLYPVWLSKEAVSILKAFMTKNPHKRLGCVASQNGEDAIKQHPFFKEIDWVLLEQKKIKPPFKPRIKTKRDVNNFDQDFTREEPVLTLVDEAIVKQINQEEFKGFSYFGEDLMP
Description: as §1

PKC beta 1 = PKC beta 1 (Homo sapiens, UniProt P05771); assay: Kinase-Glo Luminescent Kinase Assay; type: biochemical; parameters: purchased; conditions: for inhibition of PKC beta 1 activity (in words): Kinase-Glo
Sequence of PKC beta 1 (P05771 whole entry): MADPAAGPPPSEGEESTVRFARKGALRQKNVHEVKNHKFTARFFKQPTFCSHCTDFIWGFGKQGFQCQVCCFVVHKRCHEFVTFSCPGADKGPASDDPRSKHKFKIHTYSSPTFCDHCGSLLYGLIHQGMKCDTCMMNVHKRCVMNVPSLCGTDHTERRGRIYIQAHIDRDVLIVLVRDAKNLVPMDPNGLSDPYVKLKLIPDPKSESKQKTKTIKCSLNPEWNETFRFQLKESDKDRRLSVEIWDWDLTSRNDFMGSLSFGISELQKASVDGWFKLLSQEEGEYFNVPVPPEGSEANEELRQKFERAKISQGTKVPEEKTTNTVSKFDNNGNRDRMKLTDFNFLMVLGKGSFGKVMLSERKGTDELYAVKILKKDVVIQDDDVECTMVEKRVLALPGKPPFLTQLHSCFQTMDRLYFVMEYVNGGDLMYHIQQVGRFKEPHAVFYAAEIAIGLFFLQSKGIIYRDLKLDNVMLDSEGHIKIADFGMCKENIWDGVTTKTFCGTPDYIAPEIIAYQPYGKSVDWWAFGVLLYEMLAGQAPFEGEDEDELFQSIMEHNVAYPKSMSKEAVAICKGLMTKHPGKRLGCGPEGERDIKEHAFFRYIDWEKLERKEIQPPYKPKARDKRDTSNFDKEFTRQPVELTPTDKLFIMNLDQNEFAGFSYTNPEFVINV
Description: as §1

[2] = tested on: LS180 human colon cancer cells; assay: Survival of doxorubicin-resistant colon cancer cells, trypan blue exclusion; type: cell-based; conditions: 50 ng/ml; 72 hrs
Description: Highly tumourigenic human colon cancer cells (LS180; ATCC # CL-187) which constitutively express multi-drug resistance (MDR) were used for this experiment. LS180 cells were seeded in 6 well plates at a density of 2×10^5. After a 24 hr recovery cells were treated with 50 ng/ml of doxorubicin, 2.5 μM compound TIM 10, or a combination of doxorubicin and compound TIM 10 (2.5 μM and 5 μM) for 72 hrs. Note that compound TIM 10 was added to the cell culture medium; no protocol was used to force the compound into the cell. The cells were then trypsinized and counted using the standard trypan blue dye exclusion assay.

PKC enzymes (cPKCs) = assay: Phosphorylation of MARCKS peptide by endogenous PKCs in IMR-32 cells; type: cell-based, human
PKC-α [3] = target: T2, PKC-α (Homo sapiens, UniProt P17252); assay: Competition of PRE with PKC-α antibody binding, Protocol B (peptide added to cell extract before electrophoresis), IMR-32; parameters: endogenous PKC-α in (A) untreated human neuroblastoma (IMR-32) cells; endogenous in cells; host or cells: IMR-32 human neuroblastoma cells; conditions: 100 μg
Description: Peptides PRE 3 and PRE 4 (see Table 4) were tested for their ability to interfere with the binding of isoform-specific polyclonal antibodies (Santa Cruz Biotechnology, Inc.) to PKC-α, PKC-βI or PKC-βII using the general protocol described in Example 3.

PKC-β [4] = target: T3, PKC-β (Homo sapiens, UniProt P05771); assay: Competition of PRE with PKC-β antibody binding, Protocol B, IMR-32; conditions: 100 μg
T3 construct: PRE 2 and PRE 3 in IMR-32 Neuroblastoma Cells: Protocol A; endogenous in cells; host or cells: IMR-32 human neuroblastoma cells
T3 sequence (P05771 whole entry): as the sequence (P05771 whole entry) above
Description: The ability of the peptides PRE 2 and PRE 3 (see Table 4) to interfere with the binding of a PKC-α-specific polyclonal antibody (Santa Cruz Biotechnology, Inc.) to PKC-α was determined using a modified version of the protocol outlined above in which the test peptide was added directly to the cell extract prior to electrophoresis at a concentration of either 5× or 15× the concentration of the protein applied to each well of the gel for the Western blots (20 μg).
Peptides PRE 2 and PRE 3 (see Table 4) were tested for their ability to interfere with the binding of a PKC-β-specific polyclonal antibody (Santa Cruz Biotechnology, Inc.) to PKC-β using the general protocol described in Example 3.

PKC-β [5] = target: T3, PKC-β; assay: Competition of PRE with PKC-β antibody binding, Protocol A, IMR-32 lysate
Description: (§2) Cell lysates from either IMR-32 (human neuroblastoma) cells or C6Cx43 cells (rat glioma transfected cells overexpressing connexin 43) were obtained using standard protocols and the proteins of the lysate were separated by SDS PAGE electrophoresis and electrotransferred onto a nitrocellulose membrane. The membrane was incubated for 30 minutes in blocking buffer (TBST) containing the test peptide at either 5× or 20× the concentrations of the primary antibody. A primary polyclonal antibody specific for PKC-α (Santa Cruz Biotechnology, Inc., CA) was then added (15 μg/ml) and the membrane incubated for a further 45 minutes. Finally, the primary antibody was detected with a secondary antibody conjugated to alkaline phosphatase using standard procedures. The intensity of the band corresponding to PKC-α was assessed by scanning and densitometry using the Gel-Pro software (Media Cybernetics) to obtain relative band intensities (average of 3 replicas). Control assays were conducted as described above except that blocking buffer without peptide was used.
Peptides PRE 1, PRE 2 and PRE 3 (see Table 4) were tested for their ability to interfere with the binding of a PKC-β-specific polyclonal antibody (Santa Cruz Biotechnology, Inc.) to PKC-β using the general protocol described in Example 1. […] It is worth noting in this regard that PKC-α and PKC-β belong to the same sub-group of PKCs (cPKCs).

PKC-α [6] = target: T2, PKC-α; assay: Competition of PRE with PKC-α antibody binding on Western blot, Protocol A, IMR-32 lysate; parameters: endogenous PKC-α in (A) untreated human neuroblastoma (IMR-32) cells; endogenous in cells; host or cells: IMR-32 human neuroblastoma cells; conditions: IMR-32 cells
Description: The ability of the PRE 1, 2 and 3 (see Table 3 above) to interfere with the binding of a PKC-α-specific polyclonal antibody to PKC-α was determined using the following protocol.
as §2
The results are expressed as relative band intensity and as a percentage of the intensity of the corresponding band in the control assay (“Relative intensity (%)”). “% inhibition” relates to the percentage of the PKC-α band that is inaccessible to the antibody.

## CC[C@H](C)[C@H](NC(=O)[C@H](CO)NC(=O)[C@@H](NC(=O)CNC(=O)[C@@H](NC(=O)[C@H](CC(C)C)NC(=O)[C@H](CC(N)=O)NC(=O)[C@H](CCC(N)=O)NC(=O)[C@H](C)NC(=O)[C@H](CC(=O)OC)NC(=O)[C@H](CCCCN)NC(=O)CNC(=O)CNC(=O)CNC(=O)CNC(=O)CNC(=O)CNC(=O)CNC(=O)[C@H](CC(C)C)NC(=O)[C@H](CCCNC(=N)N)NC(=O)[C@H](Cc1ccccc1)NC(=O)[C@H](CCCCNC(=O)CN(CCN)C(=O)Cn1cnc2c(N)ncnc21)NC(=O)[C@H](CCCNC(=N)N)NC(=O)[C@H](CCCNC(=N)N)NC(=O)[C@H](Cc1ccccc1)NC(C)=O)[C@@H](C)CC)[C@@H](C)CC)C(N)=O [TIM 15] (Ac-FRRK(PNA(A))FRLGGGGGGGKD(OMe)AQNLIGISI-NH2)
[1]
  apoptosis of peripheral blood lymphocytes: do not induce apoptosis
  blastogenic response to mitogens: do not drastically limit the blastogenic response
PKC alpha; 15.0 μM, read-out: % Inhibition PKC-α
  inhibition at 15 µM: 32.1%
PKC alpha; 30.0 μM, read-out: % Inhibition PKC-α
  inhibition at 30 µM: 21.8%
PKC delta; 15.0 μM, read-out: % Inhibition PKC-δ
  inhibition at 15 µM: 18.6%
PKC delta; 30.0 μM, read-out: % Inhibition PKC-δ
  inhibition at 30 µM: 21.8%
PKC epsilon; 15.0 μM, read-out: % Inhibition PKC-ε
  inhibition at 15 µM: 9%
PKC epsilon; 30.0 μM, read-out: % Inhibition PKC-ε
  inhibition at 30 µM: 81%
PKC beta 1; 15.0 μM, read-out: % Inhibition PKC-βI
  inhibition at 15 µM: 18.8%
PKC beta 1; 30.0 μM, read-out: % Inhibition PKC-βI
  inhibition at 30 µM: -69%

## COc1cccc2c1C(=O)c1c(O)c3c(c(O)c1C2=O)C[C@@](O)(C(=O)CO)C[C@@H]3O[C@H]1C[C@H](N)[C@H](O)[C@H](C)O1 [doxorubicin]
[2]
  cell survival: a large proportion of the cells survived

## Ac—FRRCFRL—(G)7—AKGIQEVKGGDAQNLIGISI—NH2 (Ac-FRRCFRLGGGGGGGAKGIQEVKGGDAQNLIGISI-NH2) [TIM 18, PRE 3 and PKI 4]
PKC alpha; 2.5 μM
  % Inhibition PKC-α: 16.4%
PKC alpha
  inhibition of PKC alpha activity (in words): very potent inhibitor
PKC delta; 5.0 μM
  % Inhibition PKC-δ: 56.3%
PKC delta; 30.0 μM
  % Inhibition PKC-δ: 85.1%
PKC delta
  inhibition of PKC delta activity (in words): inhibits the activity
PKC epsilon; Kinase-Glo
  inhibition of PKC epsilon activity (in words): no effect
PKC beta 1
  inhibition of PKC beta 1 activity (in words): inhibits the activity

## Ac—FRRCFRL—(G)7—KDAQNLIGISI—NH2 (Ac-FRRCFRLGGGGGGGKDAQNLIGISI-NH2) [TIM 21, PRE 4 and PKI 4]
PKC alpha; 15.0 μM
  % Inhibition PKC-α: 64.3%
PKC alpha; 30.0 μM
  % Inhibition PKC-α: 95.2%
PKC alpha
  inhibition of PKC alpha activity (in words): at a lesser extent
PKC delta; 2.5 μM
  % Inhibition PKC-δ: 26.2%
PKC delta
  inhibition of PKC delta activity (in words): exceptionally good inhibitor
PKC epsilon; 5.0 μM
  % Inhibition PKC-ε: −5%
PKC epsilon; 30.0 μM
  % Inhibition PKC-ε: 52%
PKC beta 1; 5.0 μM
  % Inhibition PKC-βI: 11%
PKC beta 1; 30.0 μM
  % Inhibition PKC-βI: 13.9%
PKC beta 1
  inhibition of PKC beta 1 activity (in words): not active

## Cn1c2ccccc2c2c3c(c4c5ccccc5n(CCC#N)c4c21)CNC3=O [Go6976]
PKC enzymes (cPKCs); 30 min
  inactivation of cPKCs (MARCKS phosphorylation): still very low
PKC enzymes (cPKCs); 24 h
  inactivation of cPKCs (phospho-MARCKS levels): obvious

## KDAQNLIGISL-NH2 [PRE 2]
PKC-α [3]; Example 3
  Inhibition (%): 99.9%
  Relative Intensity (%): 0.135%
PKC-α [3]; Example 3 (control 0.759)
  Band Intensity: 0.0103
PKC-β [4]
  Band Intensity: 0.0322
  Inhibition (%): 54.7%
  Relative Intensity (%): 45.3%
PKC-β [5]; 75 μg
  Band Intensity: 0.800
  Inhibition (%): 31.0%
  Relative Intensity (%): 69.0%
PKC-β [5]; 300 μg
  Band Intensity: 0.403
  Inhibition (%): 65.3%
  Relative Intensity (%): 34.7%
PKC-α [6]; 75 μg
  Band Intensity: 0.917
  Inhibition (%): 56.1%
  Relative Intensity (%): 43.9%
PKC-α [6]; 300 μg
  Band Intensity: 0.192
  Inhibition (%): 90.9%
  Relative Intensity (%): 9.1%
